Assay results as given in US20200087367A1 (ACCELERON PHARMA, published 2020).

B1: BMP10 (ligand)
chain: NAKGNYCKRTPLYIDFKEIGWDSWIIAPPGYEAYECRGVCNYPLAEHLTPTKHAIIQALVHLKNSQKASKACCVPTKLEPISILYLDKGVVTYKFKYEGMAVSECGCR
notes: also called hBMP-10; hBMP10
B2: BMP9 (ligand, human, UniProt Q9UK05 320-429, looked up)
chain: SAGAGSHCQKTSLRVNFEDIGWDSWIIAPKEYEAYECKGGCFFPLADDVTPTKHAIVQTLVHLKFPTKVGKACCVPTKLSPISVLYKDDMGVPTLKYHYEGMSVAECGCR
notes: also called hBMP-9; hBMP9

What was measured:
[1] = target: T1, ActRIIB-mFc (human, UniProt Q13705 20-134); test: SPR (Biacore), ligand amine-coupled to CM5 chip, Fc fusion injected
T1 sequence: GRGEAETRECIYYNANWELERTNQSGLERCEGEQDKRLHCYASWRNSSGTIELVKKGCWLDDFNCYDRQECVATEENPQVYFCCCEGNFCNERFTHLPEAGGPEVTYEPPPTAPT

[2] = target: T2, hENG(360-586)-hFc (human, UniProt P17813 360-586); test: SPR, captured hENG-hFc, soluble BMP10; '-' = Binding undetectable
T2 construct: HEK 293, purified; not shown: linker and human IgG1 Fc domain
T2 sequence: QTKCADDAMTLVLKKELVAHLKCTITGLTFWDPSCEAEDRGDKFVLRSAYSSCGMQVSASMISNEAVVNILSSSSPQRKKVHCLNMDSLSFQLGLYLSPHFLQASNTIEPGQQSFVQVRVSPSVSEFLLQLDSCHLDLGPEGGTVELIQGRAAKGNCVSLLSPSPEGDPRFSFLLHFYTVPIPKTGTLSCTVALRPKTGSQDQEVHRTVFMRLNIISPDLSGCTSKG
Experimental: (§1) SPR methodology was used to screen these hENG-hFc protein variants for high-affinity binding to human BMP9 and BMP10. In these experiments, captured hENG-hFc proteins were exposed to soluble BMP9 or BMP10 at 100 nM each.

[3] = target: T3, hENG(438-586)-hFc (human, UniProt P17813 438-586); test: as above
T3 construct: HEK 293, purified; not shown: linker and human IgG1 Fc domain
T3 sequence: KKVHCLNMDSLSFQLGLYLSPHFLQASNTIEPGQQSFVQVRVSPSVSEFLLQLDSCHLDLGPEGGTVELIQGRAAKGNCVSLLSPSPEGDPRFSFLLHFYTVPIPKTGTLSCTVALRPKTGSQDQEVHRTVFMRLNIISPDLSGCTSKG
Experimental: as §1

[4] = target: T4, hENG(61-346)-hFc (human, UniProt P17813 61-346); test: as above
T4 construct: HEK 293, purified; not shown: linker and human IgG1 Fc domain
T4 sequence: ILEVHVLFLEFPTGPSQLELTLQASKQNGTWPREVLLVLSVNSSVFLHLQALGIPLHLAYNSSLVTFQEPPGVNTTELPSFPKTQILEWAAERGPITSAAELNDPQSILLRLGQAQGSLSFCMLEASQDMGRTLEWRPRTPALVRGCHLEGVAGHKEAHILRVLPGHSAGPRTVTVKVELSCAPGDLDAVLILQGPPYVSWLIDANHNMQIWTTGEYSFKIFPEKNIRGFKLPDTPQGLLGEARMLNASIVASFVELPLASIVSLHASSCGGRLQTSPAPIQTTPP
Experimental: as §1

[5] = target: T5, hENG(133-346)-hFc (human, UniProt P17813 133-346); test: as above
T5 construct: HEK 293, purified; not shown: linker and human IgG1 Fc domain
T5 sequence: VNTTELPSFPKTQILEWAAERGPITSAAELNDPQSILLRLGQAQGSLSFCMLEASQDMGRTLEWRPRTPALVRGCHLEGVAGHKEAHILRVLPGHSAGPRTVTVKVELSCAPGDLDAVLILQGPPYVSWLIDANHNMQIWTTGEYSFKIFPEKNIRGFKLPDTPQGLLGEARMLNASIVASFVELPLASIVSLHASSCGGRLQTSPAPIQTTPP
Experimental: as §1

[6] = target: T6, BMP10pro(22-315)-mFc (human, UniProt O95393 22-315); test: SPR (Biacore), BMP10pro-Fc captured by anti-Fc antibody, ligand injected
T6 construct: also called mouse Fc equivalent construct; not shown: optional linker and mouse immunoglobulin G1 Fc domain
T6 sequence: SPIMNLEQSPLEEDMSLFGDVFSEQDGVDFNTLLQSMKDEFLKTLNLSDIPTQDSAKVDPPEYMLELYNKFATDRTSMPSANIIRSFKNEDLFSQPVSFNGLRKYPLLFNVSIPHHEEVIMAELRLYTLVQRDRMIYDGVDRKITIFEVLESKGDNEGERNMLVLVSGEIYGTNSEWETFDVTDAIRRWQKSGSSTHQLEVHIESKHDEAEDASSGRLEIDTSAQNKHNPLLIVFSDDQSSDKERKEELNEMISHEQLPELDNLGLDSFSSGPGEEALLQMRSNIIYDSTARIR
Experimental: (§2) The BMP10pro-Fc proteins were separately was captured onto the system using an anti-Fc antibody, and ligands were injected and allowed to flow over the captured receptor protein. […] The mouse Fc equivalent constructs behaved similarly. […] The affinity of BMP10pro(22-315)-hFc for BMP3b was not assessed.

[7] = target: T7, BMP10pro(22-312)-mFc (human, UniProt O95393 22-312); test: as above
T7 construct: also called mouse Fc equivalent construct; not shown: optional linker and mouse immunoglobulin G1 Fc domain
T7 sequence: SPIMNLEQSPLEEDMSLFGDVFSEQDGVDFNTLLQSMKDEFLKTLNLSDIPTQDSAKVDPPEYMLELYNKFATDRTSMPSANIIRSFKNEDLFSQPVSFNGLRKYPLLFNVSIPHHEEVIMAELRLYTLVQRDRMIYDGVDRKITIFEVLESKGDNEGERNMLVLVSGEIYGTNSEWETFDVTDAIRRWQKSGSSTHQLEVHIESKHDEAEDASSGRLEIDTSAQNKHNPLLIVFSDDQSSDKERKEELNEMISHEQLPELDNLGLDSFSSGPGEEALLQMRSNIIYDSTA
Experimental: as §2

[8] = target: T8, hENG(26-437)-hFc (human, UniProt P17813 26-437); test: SPR kinetics; HEK293-cell-derived protein
T8 construct: HEK 293, purified; not shown: linker and human IgG1 Fc domain
T8 sequence: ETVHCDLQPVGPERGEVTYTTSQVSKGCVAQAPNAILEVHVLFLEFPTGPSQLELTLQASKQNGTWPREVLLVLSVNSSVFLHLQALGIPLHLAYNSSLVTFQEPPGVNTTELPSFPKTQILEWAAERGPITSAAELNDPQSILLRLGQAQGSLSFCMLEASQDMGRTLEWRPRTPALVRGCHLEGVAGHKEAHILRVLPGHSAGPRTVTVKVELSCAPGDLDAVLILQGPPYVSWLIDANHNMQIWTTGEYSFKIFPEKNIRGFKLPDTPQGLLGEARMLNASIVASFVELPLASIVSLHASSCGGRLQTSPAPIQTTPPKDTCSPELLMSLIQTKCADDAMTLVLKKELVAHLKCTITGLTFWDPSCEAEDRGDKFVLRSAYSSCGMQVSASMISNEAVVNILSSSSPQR

[9] = target: T9, ActRIIA-mFc (human, UniProt P27037 21-135); test: SPR (Biacore), ligand amine-coupled to chip, Fc fusion injected
T9 construct: not shown: linker and mouse Fc domain
T9 sequence (P27037 21-135): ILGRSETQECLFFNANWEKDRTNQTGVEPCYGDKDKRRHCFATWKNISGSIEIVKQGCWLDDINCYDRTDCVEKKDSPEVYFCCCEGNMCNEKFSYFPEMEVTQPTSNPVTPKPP

Binder	binding result [1]	binding result [2]	binding result [3]	binding result [4]	binding result [5]	binding result [6]	binding result [7]	Kd [8]	koff [8]	binding result [9]
B1	binds	no binding (tested: 100 nM)	no binding (tested: 100 nM)	no binding (tested: 100 nM)	no binding (tested: 100 nM)	binds	binds	0.13 nM	0.0028 s⁻¹	binds
B2	binds					binds	binds			binds
